From patent publication US20080131497A1, “Formulations of DNase and Methods of Use Thereof” (priority 2006, published 2008)

How the values were obtained:
[1] = administered by inhalation, CF patients; cited from earlier work
[2] = test system: colony forming units (CFU); settings: administered by inhalation, CF patients; cited from earlier work
DNA [3] = assay: Enzymatic activity of human DNase forms, methyl green (MG) assay; type: biochemical
Text: Kurnick, Arch. Biochem. 29:41 (1950). […] Thus, by combining the purified deamidated DNases and the purified non-deamidated DNase of the present invention in various proportions, it is possible to prepare pharmaceutical compositions of human DNase having any desired specific activity in the range between the specific activities of the individual components, as may be optimal for treating particular disorders.

DNA [4] = assay: DNase viscosity assay (DNA digestion); type: biochemical; settings: DNase 1 μg/mL, 2 mg/mL DNA, 1 mM Ca2+ and Mg2+
Description: At specific time points aliquots of samples were taken from the vials, diluted and analyzed for DNase activity. Enzymatic activity of DNase was determined by viscosity assay. DNA decomposition by DNase results in decrease of viscosity. DNase at 1 μg/mL normally can digest 2 mg/mL DNA resulting in decrease of viscosity from ˜25 cP (5 rpm) to 10 cP in ˜10 min (and to approaching 1 cP in longer time) in presence of 1 mM Ca^2+ and Mg^2+ ions. Kinetics of viscosity change due to degradation of DNA was measured by Brookfield D-II+ Pro viscosimeter at 5 rpm. Results showing increased stability for DNase when stored in the presence of empty liposomes or liposomal encapsulated antiinfective are presented in FIG. 2.
Activity was determined as a reciprocal value of a time to reduce viscosity in half, normalized to activity of standard DNase solution (A=T1/2^std/T1/2). The two curves in FIG. 3 illustrate an activity assay and how T1/2 is determined. The curves represent typical change in viscosity of DNA solution after DNase is added. v1 is viscosity at 1 minute, when the first measurement point is taken. T1/2 is the time interval after adding DNase required to reach viscosity level equal to half of v1.

DNA [5] = assay: Enzymatic activity of doubly deamidated DNase; type: biochemical; settings: deamidated at Asn 7 and Asn 74

**Q.** Which “improvement in FEV1” value [1] does the source give for `NC[C@H]1O[C@H](O[C@H]2[C@H](O)[C@@H](O[C@H]3O[C@H](CO)[C@@H](O)[C@H](N)[C@H]3O)[C@H](N)C[C@@H]2N)[C@H](N)C[C@@H]1O` [tobramycin, reference compound] here?
**A.** approximately 10%

**Q.** What about the “reduction in colony forming units (CFU)” value [2] of the same molecule?
**A.** about 2 log units

B1: deamidated human DNase: human DNase deamidated at the asparagine residue at position 74 of native mature human DNase (protein, UniProt P24855 23-282, looked up, variant N74D)
Deoxyribonuclease-1: LKIAAFNIQTFGETKMSNATLVSYIVQILSRYDIALVQEVRDSHLTAVGKLLDNLNQDAPDTYHYVVSEPLGRDSYKERYLFVYRPDQVSAVDSYYYDDGCEPCGNDTFNREPAIVRFFSRFTEVREFAIVPLHAAPGDAVAEIDALYDVYLDVQEKWGLEDVMLMGDFNAGCSYVRPSQWSSIRLWTSPTFQWLIPDSADTTATPTHCAYDRIVVAGMLLRGAVVPDSALPFNFQAAYGLSDQLAQAISDHYPVEVMLK
modifications: deamidation
notes: human DNase deamidated at the asparagine residue at position 74 of native mature human DNase
**Q.** Which “enzymatic activity compared to non-deamidated human DNase” value (DNA [3]) does the source give for B1 here?
**A.** just over half

B2: Pulmozyme: highly purified, commercially available solution of DNase (from Genentech); recombinant human DNase (protein, UniProt P24855 23-282, looked up)
Deoxyribonuclease-1: LKIAAFNIQTFGETKMSNATLVSYIVQILSRYDIALVQEVRDSHLTAVGKLLDNLNQDAPDTYHYVVSEPLGRNSYKERYLFVYRPDQVSAVDSYYYDDGCEPCGNDTFNREPAIVRFFSRFTEVREFAIVPLHAAPGDAVAEIDALYDVYLDVQEKWGLEDVMLMGDFNAGCSYVRPSQWSSIRLWTSPTFQWLIPDSADTTATPTHCAYDRIVVAGMLLRGAVVPDSALPFNFQAAYGLSDQLAQAISDHYPVEVMLK
**Q.** For B2, which “improvement in FEV1” value [1] is on record?
**A.** approximately 10%

B3: DNase: recombinant human deoxyribonuclease I, an enzyme which selectively cleaves DNA; standard in viscosity assay (protein, UniProt P24855 23-282, looked up)
Deoxyribonuclease-1: LKIAAFNIQTFGETKMSNATLVSYIVQILSRYDIALVQEVRDSHLTAVGKLLDNLNQDAPDTYHYVVSEPLGRNSYKERYLFVYRPDQVSAVDSYYYDDGCEPCGNDTFNREPAIVRFFSRFTEVREFAIVPLHAAPGDAVAEIDALYDVYLDVQEKWGLEDVMLMGDFNAGCSYVRPSQWSSIRLWTSPTFQWLIPDSADTTATPTHCAYDRIVVAGMLLRGAVVPDSALPFNFQAAYGLSDQLAQAISDHYPVEVMLK
**Q.** Which “time for decrease of viscosity from ~25 cP (5 rpm) to 10 cP” value (DNA [4]) does the source give for B3 here?
**A.** ~10 min

B4: doubly deamidated DNase: human DNase deamidated at asparagine position 7 in addition to position 74 (protein, UniProt P24855 23-282, looked up, variant N7D N74D)
Deoxyribonuclease-1: LKIAAFDIQTFGETKMSNATLVSYIVQILSRYDIALVQEVRDSHLTAVGKLLDNLNQDAPDTYHYVVSEPLGRDSYKERYLFVYRPDQVSAVDSYYYDDGCEPCGNDTFNREPAIVRFFSRFTEVREFAIVPLHAAPGDAVAEIDALYDVYLDVQEKWGLEDVMLMGDFNAGCSYVRPSQWSSIRLWTSPTFQWLIPDSADTTATPTHCAYDRIVVAGMLLRGAVVPDSALPFNFQAAYGLSDQLAQAISDHYPVEVMLK
modifications: deamidation
**Q.** For B4, which enzymatic activity (DNA [5]) is on record?
**A.** enzymatically inactive
